The Kd is the concentration at which binding is half-saturated. Read a high Kd as weaker binding. One may read the stoichiometry N as the number of molecules, sites or subunits per partner or assembly.

This is an account of results in paper PMC10875832.

Assay [1] addresses FAdV-4 fiber1 knob (fowl adenovirus 4 (FAdV-4)). The experiment in a line: SPR; Biacore X100, CM5 sensor chip; fibre knobs immobilised, soluble CAR domains in solution (said for D12); 1:1 binding model. For orientation: SPR reads the build-up and loss of mass on a sensor chip optically.
Assay [2] has as its target EDSV fibre knob (egg drop syndrome virus (EDSV)). The description is as above.
The target in assay [3] is FAdV-4 fiber1 knob (fowl adenovirus 4 (FAdV-4)). The experiment in a line: crystal structure; crystal in 20% (w/v) PEG 4000 and 0.15 M potassium sulfate; one chain in the asymmetric unit, trimer by crystal symmetry.
Assay [4] addresses CELO fiber1 knob (chicken embryo lethal orphan (CELO) virus). Put plainly: SPR; Biacore X100, CM5 sensor chip; fibre knobs immobilised, soluble CAR domains in solution (said for D12); 1:1 binding model.

As to “soluble CAR D1 domain (domain or fragment)”, the equilibrium dissociation constant (Kd) in assay [1] was 7.42 µM; in assay [2], 2.76 µM.

For the substance soluble CAR D12 (domain or fragment), the Kd in assay [1] was determined as 0.868 µM; in assay [2] it was 2.67 µM.

As for FAdV-4 fiber1 knob (domain or fragment), in assay [3], the stoichiometry N stood at 3.

On to “soluble CAR D2 domain (domain or fragment)”, for which the results for the Kd in assay [4], in assay [1] and in assay [2] were 11200 µM, 6.29 µM and 4.77 µM, respectively. This substance also returned a fold weaker affinity than the D1 domain for the same knob in assay [4] of 1000 fold.
